± gives the uncertainty stated by the source.
Test: self-splicing fitness, log relative to wild type (ln ratio); higher = more splicing; Tetrahymena group I intron in knt gene, E. coli kanamycin selection, DiMSum; sequences stand for … in CUCUCU…GGAGGGAAAAGUUAUCAGGCAUGCACCUGGUAGCUAGUCUUUAAACCAAUAGAUUGCAUCGGUUUAAAAGGCAAGACCGUCAAAUUGCGGGAAAGGGGUCAACAGCCGUUCAGUACCAAGUCUCAGGGGAAACUUUGAGAUGGCCUUGCAAAGGGUAUGGUAAUAAGCUGACGGACAUGGUCCUAACCACGCAGCCAAGUCCUAAGUCAACAGAUCUUCUGUUGAUAUGGAUGCAGUUCACAGACUAAAUGUCGGUCGGGGAAGAUGUAUUCUUCUCAUAAGAUAUAGUCGGACCUCUCCUUAAUGGGAGCUAGCGGAUGAAGUGAUGCAACACUGGAGCCGCUGGGAACUAAUUUGUAUGCGAAAGUAUAUUGAUUAGUUUUGGAGUACUCGUGGUCG
Outline: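 DiMSum derived fitness as the error-weighted combination of fold changes across replicates, kanamycin versus no kanamycin, normalised to wild type. E. coli BL21(DE3) held the library, which randomised all eight P1ex-region intron nucleotides within the knt kanamycin-resistance gene on pET-22b(+). Six replicate transformations grew overnight at 37°C or 30°C on LB agar with or without 25 μg/mL kanamycin, also containing 100 μg/mL carbenicillin, 50 μM IPTG and 0.2% rhamnose, and pooled colonies were amplicon-sequenced on an Illumina HiSeq 2500.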

## UCCAAGCAAUAUUACGGAUG
30 °C
  self-splicing fitness (ln): -3.77 ± 0.13
37 °C
  self-splicing fitness (ln): -3.2 ± 0.25

## GCUAAGCAAUAUUACGUAUC
30 °C
  self-splicing fitness (ln): -0.952 ± 0.082
37 °C
  self-splicing fitness (ln): -0.277 ± 0.1

## GCUAAGCAAUAUUACGGUGA
30 °C
  self-splicing fitness (ln): -0.864 ± 0.073
37 °C
  self-splicing fitness (ln): -0.0497 ± 0.077

## AUCCAGCAAUAUUACGUGGG
30 °C
  self-splicing fitness (ln): -2.58 ± 0.1
37 °C
  self-splicing fitness (ln): -3.5 ± 0.13

## UAACAGCAAUAUUACGACCU
30 °C
  self-splicing fitness (ln): -0.404 ± 0.098
37 °C
  self-splicing fitness (ln): 0.106 ± 0.11

## GAAGAGCAAUAUUACGUGGC
30 °C
  self-splicing fitness (ln): -2.97 ± 0.24
37 °C
  self-splicing fitness (ln): -3.01 ± 0.33

## GGCUAGCAAUAUUACGCAAU
30 °C
  self-splicing fitness (ln): -0.887 ± 0.14
37 °C
  self-splicing fitness (ln): -0.69 ± 0.16

## UCGUAGCAAUAUUACGUCAA
30 °C
  self-splicing fitness (ln): -2.24 ± 0.23
37 °C
  self-splicing fitness (ln): -1.53 ± 0.15

## CCUGAGCAAUAUUACGCUAG
30 °C
  self-splicing fitness (ln): -3.02 ± 0.19
37 °C
  self-splicing fitness (ln): -1.27 ± 0.17

## GGCAAGCAAUAUUACGCAUG
30 °C
  self-splicing fitness (ln): -2.17 ± 0.12
37 °C
  self-splicing fitness (ln): -1.36 ± 0.16

## UGACAGCAAUAUUACGCCCA
30 °C
  self-splicing fitness (ln): 0.217 ± 0.12
37 °C
  self-splicing fitness (ln): 0.269 ± 0.16

## AGCCAGCAAUAUUACGAUUC
30 °C
  self-splicing fitness (ln): -2.67 ± 0.22
37 °C
  self-splicing fitness (ln): -2.49 ± 0.3

## AAUAAGCAAUAUUACGUUUC
30 °C
  self-splicing fitness (ln): -4.09 ± 0.28
37 °C
  self-splicing fitness (ln): -2.46 ± 0.24

## GCAAAGCAAUAUUACGAUAG
30 °C
  self-splicing fitness (ln): -2.23 ± 0.11
37 °C
  self-splicing fitness (ln): -0.989 ± 0.12

## UUAGAGCAAUAUUACGGCUA
30 °C
  self-splicing fitness (ln): -0.0336 ± 0.14
37 °C
  self-splicing fitness (ln): 0.4 ± 0.17

## CGGUAGCAAUAUUACGGUCG
30 °C
  self-splicing fitness (ln): -2.62 ± 0.21
37 °C
  self-splicing fitness (ln): -1.65 ± 0.25

## GAUUAGCAAUAUUACGUUCU
30 °C
  self-splicing fitness (ln): -2.91 ± 0.11
37 °C
  self-splicing fitness (ln): -2.07 ± 0.1

## CCGGAGCAAUAUUACGCUUU
30 °C
  self-splicing fitness (ln): -4.14 ± 0.3
37 °C
  self-splicing fitness (ln): -2.47 ± 0.17

## CGAAAGCAAUAUUACGGGGG
30 °C
  self-splicing fitness (ln): -2.85 ± 0.14
37 °C
  self-splicing fitness (ln): -1.96 ± 0.13

## AUUCAGCAAUAUUACGGUCC
30 °C
  self-splicing fitness (ln): -1.46 ± 0.11
37 °C
  self-splicing fitness (ln): -0.22 ± 0.12

## UAGGAGCAAUAUUACGUCUC
30 °C
  self-splicing fitness (ln): -2.51 ± 0.49

## GCCUAGCAAUAUUACGCUCG
30 °C
  self-splicing fitness (ln): -2.7 ± 0.2
37 °C
  self-splicing fitness (ln): -2.06 ± 0.3

## GAUUAGCAAUAUUACGAAUU
30 °C
  self-splicing fitness (ln): -2.56 ± 0.3
37 °C
  self-splicing fitness (ln): -2.95 ± 0.47

## CCUAAGCAAUAUUACGGGAC
30 °C
  self-splicing fitness (ln): -3.86 ± 0.23
37 °C
  self-splicing fitness (ln): -2.7 ± 0.22

## UAUGAGCAAUAUUACGGGUU
30 °C
  self-splicing fitness (ln): -4.04 ± 0.3
37 °C
  self-splicing fitness (ln): -2.41 ± 0.27

## CUCCAGCAAUAUUACGCUGU
30 °C
  self-splicing fitness (ln): -4.01 ± 0.34
37 °C
  self-splicing fitness (ln): -2.97 ± 0.34

## AGAAAGCAAUAUUACGCUCA
30 °C
  self-splicing fitness (ln): -0.775 ± 0.15
37 °C
  self-splicing fitness (ln): 1.19 ± 0.18

## UCUAAGCAAUAUUACGAAUG
30 °C
  self-splicing fitness (ln): -1.16 ± 0.095
37 °C
  self-splicing fitness (ln): -0.995 ± 0.12

## UGGUAGCAAUAUUACGGAUC
30 °C
  self-splicing fitness (ln): -2.25 ± 0.23
37 °C
  self-splicing fitness (ln): -1.65 ± 0.32

## UACGAGCAAUAUUACGUGUC
30 °C
  self-splicing fitness (ln): -3.32 ± 0.17
37 °C
  self-splicing fitness (ln): -2.83 ± 0.28

## GACGAGCAAUAUUACGCAUG
30 °C
  self-splicing fitness (ln): -3.07 ± 0.25
37 °C
  self-splicing fitness (ln): -1.61 ± 0.19

## UCAGAGCAAUAUUACGAGCC
37 °C
  self-splicing fitness (ln): -2.18 ± 0.4

## GUUAAGCAAUAUUACGCACG
30 °C
  self-splicing fitness (ln): -0.281 ± 0.18
37 °C
  self-splicing fitness (ln): -0.714 ± 0.18

## UGUAAGCAAUAUUACGUCGC
30 °C
  self-splicing fitness (ln): -3.46 ± 0.33
37 °C
  self-splicing fitness (ln): -1.65 ± 0.2

## AAUCAGCAAUAUUACGUUUU
30 °C
  self-splicing fitness (ln): -0.639 ± 0.058
37 °C
  self-splicing fitness (ln): -0.399 ± 0.085

## CAAGAGCAAUAUUACGGUUG
30 °C
  self-splicing fitness (ln): -2.72 ± 0.12
37 °C
  self-splicing fitness (ln): -2.25 ± 0.18

## UUGCAGCAAUAUUACGGCGA
30 °C
  self-splicing fitness (ln): -1.53 ± 0.12
37 °C
  self-splicing fitness (ln): -0.929 ± 0.14

## CCCCAGCAAUAUUACGAUGC
30 °C
  self-splicing fitness (ln): -3.46 ± 0.16
37 °C
  self-splicing fitness (ln): -3.15 ± 0.29
